Assay: label from the status in PepcDB records
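Also: failed if final PepcDB status was selected cloned or expressed and not failed if soluble or beyond.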

| Sequence | protein production |
| --- | --- |
| SLGELFAVFNEKLTIPEQEALMFLYAYMPTGDVTDYTGDYYLENVRLSDQARREMPWGKEIPDDVFRHFVLPIRVNNENLDDSRRVFYNELKDRVKNLSLHDAVLEVNHWCHEKVIYTPSDARTSAPLASVKTAYGRCGEESTFTVAALRSVGIPARQVYTPRWAHTDDNHAWVEAWVDGKWYFFGACEPEPVLNLGWFNAPASRGMLMHTKVFGRYTGQEEIMYETPNYTEINVIDNYAPTAKGSVLVTDAEGQPVADATVEFKVYNYAEFYTVATKHTDRSGHASLTAGKGDMLVWASKDGRFGYSKLSFGKDNELKITLDKNASETYSLPLDIVPPAEGANLPEVTPEQRTENDRRMAQEDSIRNAYVATFITEEQARTFAKENKLDETETVRLLIASRGNHQTLTDFLSDAVKADKAGQAISLLKVVSAKDLRDVSPEVLNDHLNNSGLPASEDFCSNVLNPRVANEMITPYKAFFRKEIPASEAEAFRKNPQALVEWCKKEITINNELNSQRIPMSPMGVWKARVADEKSRNIFFVSMARSLGIPAWIDEVTGKIQYRTFNDNNLKNGKVYDVDFEAAQQTQAPTGTLVARYRPIPSLSDPKYYSHFTLSKFRNGTFQLLNYDEGDVDMGGGATWSNLLKNGARLDTGYYMMVTGTRMASGAVLANVTFFTIEEGKTTTVDLVMRESKDQVQVIGNFNSESTYLPIGTSEPQSILQTCGRGYYVVAVLGAGQEPTNHALRDIAALSGEFEKWGRKMVLLFPSEEQYKKFRPSEFPGLPSTITYGIDVDGAIQKQIAESMKLPNSTILPMFIIGDTFNRVVFVSQGYTIGLGEQLMKVIHGEG | not failed |
| SLSTVELSGTVVKQGYLAKQGHKRKNWKVRRFVLRKDPAFLHYYDPSKEENRPVGGFSLRGSLVSALEDNGVPTGVKGNVQGNLFKVITKDDTHYYIQASSKAERAEWIEAIKKLT | not failed |
| MKMKLPLPKPSTKIAKKPQQLALLNQRLNQLSQQFKQALAQEDYQRAYECVHEVIHLVPDHRVAYMDLAYTALRLKRFDAAYQHYQKALELSEKNIDPNIYDGLTEVAYFLNQQEQVRHYGHLSLKTKQKQVASETMTALPHSAPPPISIESPEQNIIAFSLFGDQPRYCETAILNVIEARKIYPEWRCRFYVDESVPSSVLSRLQQHGAQLVLVSPEQQQISGLFWRFFVMDDPEVKRFLIRDADSLISMREREAVDEWLQSDRWFHVMRDYYSHTELILAGMWGGCTGIFHQIETSIRQYIASGRYLNERVIDQHFLRYCIWPTLQQSVITHDRYLFADNASRFPQDRDRQPDWRIQYQHVGMNESAATVSVTVNHPDAVRVKWVLLNQMKQIVCQYSAQVLSNRSIEIHLPENYVEKIRLKAWNLQIYPYEN | failed |
| MNDDKDVVIDQIYYISTDPSATTYPTTFSVSLVDNSVAGRPFFYVVGKSTMRVDRNTTLRVEEDSKLVEKYNETYGKKYLPFPEGTYSFSTNEVTINQGDNFSSDTIFISFSNWDKLSKIDKYLLPVSLKAVDDKGAVSMDRNLIYFIADFSTTNTGYNKPAAWKPLDRTDWDVSFSYAYGYDEAQFGGRLAVDGDVSTTWFTWGVVSAGECWWATTLPAPTHLTGFSLTRQTTFGSSYNVREAKVKVKKEGDTEWTEAGLFRFGSFKGNDPQYAVFIPAVENVKEFRIDIVSPADFTGFAELDLYQLEHHHHHH | failed |
| QVKSERSQKIFLEFVSANPTGPLHIGHARGAVFGDSLAKIARFLGHEVLCEYYVNDMGSQIRLLGLSVWLAYREHVLKESVTYPEVFYKGEYIIEIAKKANNDLEPSLLKENEETIIEVLSGYARDLMLLEIKDNLDALGIHFDSYASEKEVFKHKDAVFEQLEKANALYEKDSKIWLKSSLYQDESDRVLIKEDKSYTYLAGDIVYHDEKFKQDYTKYINIWGADHHGYIARVKASLEFLGYDSNKLEVLLAQMVRLLKDNEPYKMSKRAGNFILIKDVVDDVGKDALRFIFLSKRLDTHLEFDVNTLKKQDSSNPIYYIHYANSRIHTMLEKSPFSKEEVLQTP | failed |
| MSKCGVRARLLGLCTERASAWAMALIALVAGGLLTAALAFAAHTFYKQQLRQRFELLASERASRIAERFDEQQQRLDGLRRFFSFSSEITPREFDGYARPLLQRTLAYAWAPRVEAAQRAEFERLASAHTGPGYVIRDQDAQGQWRPASQRDHYFPVLYTQSSERPGLPYGLDLAGQSEPQAALARALAPALAPGSMAVSEPLALFDTQSAERGLLMVAPVFSDADPRGAAVGYVMALLSMRELVSDGRPVAVDDNLVVRITDPSGLQGPVVLFDSQNPVAPLALASNQLLRLADHHFQLSIQPSQAFAQANRSSAVMAVGLLGGLLSLLLSVLLYSLFSQRQRALALVAQRTAELQVSEQSLRGTHNQLRSVLDAATQVAIIATNLKGVVSTFNAGAERMLGYAASEAIGRLRLEDLVLPEELNLRAQALSLRFGRAIAGGQAMFAETVQEHGAEPGEWTLLRADGSQLVANMLVTAMLDEQGLWVGYLAICIDVTERRRVHEALAARDRLLEKLSAEVPGGIYQYRLDANGHSCFPYASMGLYDIYEIDLMQLREDASAVFERIHPDDLERVRRSVRYSAEHLSPWREEYRVCLPRAGLRWVRGEATPEVGEQGCTLWHGYLTDISDLKGVEEELRALSVTDSLTGIHNRRYFQERLKIELERAQRDGLPLAVIMLDIDHFKRINDRFGHAVGDRVLRSLCQRIAQRLRRTDVFCRLGGEEFMVLCPGSDANQARLLALELWQGVRNVPVEGVGQVTASFGVAGWRSGEGADALLLRADAGVYAAKQAGRDRVEGEPV | failed |
| MASRPSVRHPSHNHPLRGHKAQVEDEIICSGCDLDLLGAYFKCTKSECDYFLHKSCFDLPREIRHKSHPDHPLILLYSPQNNNSTYTCDACGEYGSGFTYNCSICQYDVHVGCVSVPETMKHDEHVHPLALIYKAPCPKDHIFTCDVCDETMPHNLWLYYCQKCDYGAHLHSCVAEEEEKSKKGGRGRGGEGGSGGNGVNRGRSSANSELAAMLKAQREMEQMQIALHLEMQRAKIDKKSRKHMLKMI | failed |
| GEKLLNAASTRGRLCVGIDPHESLLTSWGLPVNVDGLAEFSRACVEAFADTVALVKPQVAFYERFGSAGFAILEETIQTLRERGCLVVSDAKRGDIGSTMAGYASAWLDPASPLSSDAVTVSPYLGFHSLDPVFELAEQHGRGVFVLAATSNPEARELQDQQNADGVSISQQIVDQAAALNAPYMAQGKAGNIGVVIGATLSKPPRLSTLGGAILMPGVGAQGGTASDVDEIAGDMAHLAFPNVSRSILATGPDIAEMKNSVAKN | failed |
| MLPLTLIAILSLGIVEGLDPYKGLLFSYYFYSFRKVKESYVVPIVSTITYYIVGILIVEWLNISDNILTRGIMFSLLLVHVLIKLVIGKVLHYPSNMRPKILNVIQWSAINSIIQMNFIILLTLSILSKPSLILLPITVIIVRETTYCLSVKNNKILLKLTEYNFDYFYLITVLLLGIVIILPLL | failed |
| MDQQSIVSILMILATFGLYIGISIYNRARATSDFYVASRGVPPFWNGMAIGGDWMSAASFIGMAGTIMILGYDGLAYIMGWTGGYLFLTFLFAPQLRKYGRYTVPEFIGDRYGSNTARLIAAIATIIISFTYIIGQLSGSGVVIGRILNIPAMYGTMIGVVVIAIYATLGGMKGITWTQVAQYIILIVAYIIPIVFMSLQLSGNPFPWLTYGNFISQLDGLDQELGLSQILQPFMESDKSQFIALMFTLMVGTAALPHVIVRFYTVTTMKAARWSGAWALIFIALLYLSAPAYAAFSRFILMTQVANQPIDQLPAWTEAWINTGLLEMADANGDGILQWEELRISNDIVVMATPEIANLGMFVIGLVAAGAMAAALSTAGGLLITISSSFAHDIYYRLMNPKASDQKRLLAGRIAIVLATIVAGVVALDPPGVITQIVAWAFGLAGGAFFPVLLLGVWWKRANAKGAIAGMLSGLAVTLVYIFLARTGTFTLFGIQDTGAGLIGVPVNLFVTIVVSLMTAAPSQKLQDEVVDLRYPEQMTYKDGEVWMDESSGK | failed |
| MSNANQKITTFLMFEGKAEEAMNFYTSLFDQSEIVSISRYDENGPGKEGTVIHATFTLNGQEFMCIDSYVNHNFTFTPAMSLYVTCETEEEIDTVFHKLAQDGAILMPLGSYPFSKKFGWLNDKYGVSWQLTLAE | not failed |
| EKKEGHFSALPSLPVGSHAKVSSPQPRGPRYAEGTFISDYSIAMDKIHQQDFVNWLLAQKGKKNDWKHNITQREARALELASQANRKEEEAVEPQSSPAKNPSDEDLLRDLLIQELLACLLDQTNLCRLRSR | failed |
| MAKLTTDSPLCRKIVRSFLNFLDSVEVAPGVDEEGLEVARECLREAFKLNSDSSRDDDDDSFKPISLVNLFTSLDNNETIPPPPPPPVAATTQDPSSSGSHVSVDTCKEPSFTGTSRDELFGQLFGALEKVRYFRNTPDGDDDPAQLEKATRIFHDCVNEMEKSGCQTFDVNSLAETLKCQGNKAMQSNLYLEAVELYSFAIALTDKNAVFYCNRAAAYTQINMCSEAIKDCLKSIEIDPNYSKAYSRLGLAYYAQGKYAEAIEKGFKKALLLDPHNESVKENIRVAEQKIREEQQRQRRSQQNTSTFYTQEPEMGGGQGIPSQFSMPVNPDLMSMFMNMAGNTFPGNHSRNNEGGAGGDGTRNGADEPEIHVGGNINIDLGGTEQMPEDLSGALRSMMQMFGGSMGGTGNNNPQDSNGAQGRPSGN | failed |
| MNNTQKKLKVLFIGESWHIHMIHSKGYDSFTSSKYEEGATWLLECLRKGGVDIDYMPAHTVQIAFPESIDELNRYDVIVISDIGSNTFLLQNETFYQLKIKPNALESIKEYVKNGGGLLMIGGYLSFMGIEAKANYKNTVLAEVLPVIMLDGDDRVEKPEGICAEAVSPEHPVVNGFSDYPVFLGYNQAVARDDADVVLTINNDPLLVFGEYQQGKTACFMSDCSPHWGTQQFMSWPFYTDLWVNTLQFIARK | not failed |
| MKWLDRLKIANYHRKRYKQFGNDKARTLGWQDEYSQISRFEALTRSLCLEAVSILDIGCGFGDLLEYIESQNQYPARYVGIDLQKQFITKARKKAFKTPVNFICGDFSKLVLPQSDYVFASGSLNYKSSNANHTIEMIEKMYRAARIGCVFNLLDEEKLPSMRMLESHNKVGVLRYCRWLCPDAQLIEGYSDHDFTIVMIKKAEPVS | failed |
| MIKLLKKINIKSIIELVKKDFKLKLISLSVGIVMWFLVIGGVNPVVTRQFTDVPVSFKNQSVLESRKLIRVSPENPTVTVTITGKRSDVYSVNKSDIVAEVNLQNGITSGAHRLSINYKVPYNVQFKSASDNDLLVTLDEEISKTYKVEVETIGQIKNKNQVVAKKEPADSEVVVKGPVSYVNKVKRVRCVVDVTNKDGDEVVQSKIVPVDELNKEVKKVSLSKTDTNVSIGFKNFKEVPIKLVEINSPPSDVRILKKDIVPNIISIVGNLTSLEQISQINTKPFDLSQIKESGSYNLNLELPSDVTLVNNDLKVVINIDVDKKIEKTLEIDTSNIEIENESGKDILLKGLQDKVKVTVRGYESDLAKLNAEDIRLYISVKKEDVGKNVQIKAKNIENIEIAKISNDIVQAIGK | failed |
| SKALLFVIIGSVLVMLLLVGVIIMLLMGNKEESKENASKNTQEVQANPMANKNQEAKEGSNIQQYLVLGPLYAIDAPFAVNLVSQNGRRYLKASISLELSNEKLLNEVKVKDTAIKDTIIEILSSKSVEEVVTNKGKNKLKDEIKSHLNSFLIDGFIKNVFFTDFIIQ | failed |
| MLKGKYTKIEKVNGVEREYLITDKYGITIGRIFIVDLNKDNRFCMFRMKIYKQGKSINTYIKEILSVFMEFLFKSNDINKVNIIVDEEVSTQPFVELGFAFEGIINKSIIEKNVLKDEFLFGMDYKNYNSDRINVFKLYGKSITLKVLTPEDAENMLQYYIKNKEHLKPFEPEREESFYTFEAQKQMLIENYKQFINGEGTNFGIYKDAKLIGKIQISGTIYGVFKSAIIGYSIDKDYQGKGYMKDALRVAEAYAFNVMNLHRIEASALVDNLRSQNVLIGCGFEKLGINKNYLFINGRWQDHITFYKTNNN | failed |
